In patent publication US6407221:
Values belong to the molecule of their own block, whether it stands above or below them.

Columns and labels:
Assay in all cases: cell-based or functional assay
native CD4 (human) = native CD4 (human) (UniProt P01730)
[1] = target: CD4-zeta chimeric receptor F3 (human) (UniProt P01730)
[2] = target: CD4-zeta chimeric receptor F2 (human) (UniProt P01730)
[3] = target: human HLA Class 1 antigens
[4] = target: Jurkat Ti β chain (human)
CD3 epsilon (human) = CD3 epsilon (human) (UniProt P07766)
CD8/zeta chimera (human) = CD8/zeta chimera (human) (UniProt P01732)
wild-type CD8 protein = wild-type CD8 protein (UniProt P01732)

Sequence of UniProt P01732 (P01732 other isoform, or with tags, fused parts or gaps mutant): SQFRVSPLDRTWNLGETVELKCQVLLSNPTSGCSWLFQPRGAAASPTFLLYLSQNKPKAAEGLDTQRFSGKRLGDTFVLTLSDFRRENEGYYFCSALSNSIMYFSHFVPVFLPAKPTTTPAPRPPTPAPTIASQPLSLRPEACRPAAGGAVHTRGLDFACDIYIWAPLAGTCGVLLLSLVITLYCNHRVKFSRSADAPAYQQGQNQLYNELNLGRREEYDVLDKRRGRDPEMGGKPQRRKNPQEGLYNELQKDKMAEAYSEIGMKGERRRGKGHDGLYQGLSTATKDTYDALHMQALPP

IL-2 (Units/ml), JCD8/zeta 2, C305 + PMA, experiment #1 [4]: 3.7 Units/ml
IL-2 (Units/ml), JCD8/zeta 2, C305 + PMA, experiment #2 [4]: 2.1 Units/ml
IL-2 (Units/ml), Jurkat CD8, C305 + PMA, experiment #1 [4]: 13.5 Units/ml
IL-2 (Units/ml), Jurkat CD8, C305 + PMA, experiment #2 [4]: 9.1 Units/ml
internalization of the TCR after overnight incubation of JCD8/zeta 2 with saturating C305 [4]: 94%
Molecule: C305 (antibody)

IL2 produced relative to stimulation with Ionomycin, Jurkat clone CD4/1F7 (relative to Ionomycin = 100) (CD3 epsilon (human)): 38
IL2 produced relative to stimulation with Ionomycin, Jurkat clone CD4/4.1 (relative to Ionomycin = 100) (CD3 epsilon (human)): 65
IL2 produced relative to stimulation with Ionomycin, Jurkat clone F2/1A11 (relative to Ionomycin = 100) (CD3 epsilon (human)): 51
IL2 produced relative to stimulation with Ionomycin, Jurkat clone F2/1D1 (relative to Ionomycin = 100) (CD3 epsilon (human)): 59
IL2 produced relative to stimulation with Ionomycin, Jurkat clone F3/2.2 (relative to Ionomycin = 100) (CD3 epsilon (human)): 65
IL2 produced relative to stimulation with Ionomycin, Jurkat clone F3/2.7 (relative to Ionomycin = 100) (CD3 epsilon (human)): 92
absolute level of IL2 produced, Jurkat clone CD4/1F7 (CD3 epsilon (human)): 2100 pg/mL
absolute level of IL2 produced, Jurkat clone CD4/4.1 (CD3 epsilon (human)): 309 pg/mL
absolute level of IL2 produced, Jurkat clone F2/1A11 (CD3 epsilon (human)): 918 pg/mL
absolute level of IL2 produced, Jurkat clone F2/1D1 (CD3 epsilon (human)): 671 pg/mL
absolute level of IL2 produced, Jurkat clone F3/2.2 (CD3 epsilon (human)): 481 pg/mL
absolute level of IL2 produced, Jurkat clone F3/2.7 (CD3 epsilon (human)): 295 pg/mL
Molecule: OKT3 (antibody)

More lines, now with the values behind:

Molecule: OKT4A (antibody)
IL2 produced relative to stimulation with Ionomycin, Jurkat clone CD4/1F7 (relative to Ionomycin = 100) (native CD4 (human)): 0.3
IL2 produced relative to stimulation with Ionomycin, Jurkat clone CD4/4.1 (relative to Ionomycin = 100) (native CD4 (human)): 2
absolute level of IL2 produced, Jurkat clone CD4/1F7 (native CD4 (human)): 19 pg/mL
absolute level of IL2 produced, Jurkat clone CD4/4.1 (native CD4 (human)): 9 pg/mL
IL2 produced relative to stimulation with Ionomycin, Jurkat clone F3/2.2 (relative to Ionomycin = 100) [1]: 160
IL2 produced relative to stimulation with Ionomycin, Jurkat clone F3/2.7 (relative to Ionomycin = 100) [1]: 210
absolute level of IL2 produced, Jurkat clone F3/2.2 [1]: 1200 pg/mL
absolute level of IL2 produced, Jurkat clone F3/2.7 [1]: 671 pg/mL
IL2 produced relative to stimulation with Ionomycin, Jurkat clone F2/1A11 (relative to Ionomycin = 100) [2]: 86
IL2 produced relative to stimulation with Ionomycin, Jurkat clone F2/1D1 (relative to Ionomycin = 100) [2]: 60
absolute level of IL2 produced, Jurkat clone F2/1A11 [2]: 543 pg/mL
absolute level of IL2 produced, Jurkat clone F2/1D1 [2]: 683 pg/mL

Molecule: W6/32 (antibody)
IL2 produced relative to stimulation with Ionomycin, Jurkat clone CD4/1F7 (relative to Ionomycin = 100) [3]: 0.1
IL2 produced relative to stimulation with Ionomycin, Jurkat clone CD4/4.1 (relative to Ionomycin = 100) [3]: 0.7
IL2 produced relative to stimulation with Ionomycin, Jurkat clone F2/1A11 (relative to Ionomycin = 100) [3]: 10
IL2 produced relative to stimulation with Ionomycin, Jurkat clone F2/1D1 (relative to Ionomycin = 100) [3]: 11
IL2 produced relative to stimulation with Ionomycin, Jurkat clone F3/2.2 (relative to Ionomycin = 100) [3]: 3
IL-2 (Units/ml), JCD8/zeta 2, W6/32 + PMA, experiment #1 [3]: < 0.1 Units/ml
IL-2 (Units/ml), JCD8/zeta 2, W6/32 + PMA, experiment #2 [3]: < 0.1 Units/ml
IL-2 (Units/ml), Jurkat CD8, W6/32 + PMA, experiment #1 [3]: < 0.1 Units/ml
IL-2 (Units/ml), Jurkat CD8, W6/32 + PMA, experiment #2 [3]: < 0.1 Units/ml
absolute level of IL2 produced, Jurkat clone CD4/1F7 [3]: 3 pg/mL
absolute level of IL2 produced, Jurkat clone CD4/4.1 [3]: 3 pg/mL
absolute level of IL2 produced, Jurkat clone F2/1A11 [3]: 104 pg/mL
absolute level of IL2 produced, Jurkat clone F2/1D1 [3]: 123 pg/mL
absolute level of IL2 produced, Jurkat clone F3/2.2 [3]: 19 pg/mL
absolute level of IL2 produced, Jurkat clone F3/2.7 [3]: 0 pg/mL

B1: OKT8 (antibody, from another filing, V domains shown)
VH: EVQLQQSGAELVKPGASVKLSCTASGFNIKDTYIHFVRQRPEQGLEWIGRIDPANDNTLYASKFQGKATITADTSSNTAYMHLCSLTSGDTAVYYCGRGYGYYVFDHWGQGTTLTVSS
VL: DVQINQSPSFLAASPGETITINCRTSRSISQYLAWYQEKPGKTNKLLIYSGSTLQSGIPSRFSGSGSGTDFTLTISGLEPEDFAMYYCQQHNENPLTFGAGTKLELK
IL-2 (Units/ml), JCD8/zeta 2, OKT8 + PMA, experiment #1 (CD8/zeta chimera (human)): 6.8 Units/ml
IL-2 (Units/ml), JCD8/zeta 2, OKT8 + PMA, experiment #2 (CD8/zeta chimera (human)): 7 Units/ml
IL-2 (Units/ml), Jurkat CD8, OKT8 + PMA, experiment #1 (wild-type CD8 protein): < 0.1 Units/ml
IL-2 (Units/ml), Jurkat CD8, OKT8 + PMA, experiment #2 (wild-type CD8 protein): < 0.1 Units/ml
